Assay results taken from patent publication US20200181198A1 (3M INNOVATIVE PROPERTIES, published 2020).
Ends that are not written are not given here.

Assays:
[1] = target: T1, Recombinant Human Tumor Necrosis Factor-alpha (TNF-alpha) (human, UniProt P01375 77-233); assay: SPR (Biacore 3000, CM5 chip), linker modified peptide immobilized, TNF-alpha as analyte, 25 C
T1 construct: Commercial reagent; also called TNFα
Protocol: (§1) The following Test Method A was used for determining the binding affinity (KD) of SEQ ID NO: 1 for EGF and TNF-[…] Binding experiments were performed using Biacore 3000 optical biosensors equipped with research-grade CM5 sensor chips (GE Healthcare Bio-Sciences Corporation). The reagents used for the amine-coupling steps [(1-ethyl-3-(3-dimethylaminopropyl)-carbodiimide (EDC); N-hydroxysuccinimide (NHS); and ethanolamine hydrochloride-NaOH (1 M, pH 8.5)] were obtained from GE Healthcare Bio-Sciences Corporation. In order to efficiently immobilize the peptide on the sensor chips, a modified version of SEQ ID NO:1 was prepared by SPPS in which a “CK” amino acid linker sequence was added to the N-terminal end of the SEQ ID NO: 1 peptide (i.e. linker modified version of SEQ ID NO: 1 for immobilization being […]). A standard coupling protocol was employed to immobilize the linker modified version of SEQ ID NO: 1 via the lysine residues. The immobilization was performed at 25° C. using HBS-EP as the running buffer. The CM-dextran surfaces of the sensor chip flow cells were activated by a seven minute injection (20 microliters/minute) of freshly prepared 1:1 50 mM NHS: 200 mM EDC. A solution of linker modified SEQ ID NO: 1 in acetic acid (20 mM, pH 5.5) was injected to target 200 response units (RU). […]

[2] = target: T2, Recombinant Human Epidermal Growth Factor (EGF) (human, UniProt P01133 971-1023); assay: SPR (Biacore 3000, CM5 chip), linker modified peptide immobilized by amine coupling, EGF analyte 62.5-1000 nM, 25 C, 1:1 Langmuir global fit
T2 construct: Commercial reagent; also called EGF protein
T2 sequence (P01133 971-1023 limits assumed): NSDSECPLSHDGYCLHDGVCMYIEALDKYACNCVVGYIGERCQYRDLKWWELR
Protocol: as §1

[3] = target: T2, Recombinant Human Epidermal Growth …; assay: dot blot, peptide spotted on nitrocellulose, EGF in solution, anti-EGF-IgG-HRP detection
Protocol: SEQ ID NO: 1 (1 microliter of a 10 nM solution in PBS containing 3 wt. % DMSO) and SEQ ID NO: 2 (1 microliter of a 10 nM solution in PBS containing 3 wt. % DMSO) were individually spotted at separate sites on a nitrocellulose membrane (obtained from Thermo Fisher Scientific, Waltham, Mass.) and the membrane was dried in air for about 30 minutes. The membrane was then incubated in 25 mL of blocking buffer (3 wt. % BSA in PBS) for one hour at room temperature. The membrane was washed three times (15 minutes for each wash) with 15 mL portions of fresh PBST. The washed membrane was incubated with EGF protein [10 microliters of a 100 ng/mL solution in blocking buffer (3 wt. % BSA in PBS)] with gentle agitation for one hour. The membrane was again washed three times (15 minutes for each wash) with 15 mL portions of fresh PBST. The washed membrane was incubated with anti-EGF-IgG-HRP [1:5000 dilution in 10 mL of the blocking buffer (3 wt. % BSA in PBS)] for one hour with gentle agitation. Following the incubation, the membrane was washed three times (15 minutes for each wash) with 15 mL portions of fresh PBST. The washed membrane was incubated with 10 mL of the development solution for horseradish peroxidase (TMB-Blotting Substrate Solution, Pierce-Fisher Scientific, Rockford, Ill.) with gentle agitation. The color development was stopped by adding water.

[4] = target: T2, Recombinant Human Epidermal Growth …; assay: dot blot, EGF spotted on nitrocellulose, biotinylated peptide in solution, Streptavidin-HRP detection
Protocol: EGF (1 microliter of a 10 nM solution in PBS was spotted a nitrocellulose membrane (obtained from Thermo Fisher Scientific) and the membrane was dried in air for about 30 minutes. The membrane was then incubated in 15 mL of blocking buffer (3 wt. % BSA in PBS) for one hour at room temperature. The membrane was washed three times (15 minutes for each wash) with 15 mL portions of fresh PBST. The washed membrane was incubated with Biotinylated SEQ ID NO: 1 [10 mL of a 10 ng/mL solution in blocking buffer (3 wt. % BSA in PBS)] with gentle agitation for one hour. The membrane was again washed three times (15 minutes for each wash) with 15 mL portions of fresh PBST. The washed membrane was incubated with Streptavidin-HRP [1:5000 dilution in 10 mL of the blocking buffer (3 wt. % BSA in PBS)] for 30 minutes with gentle agitation. Following the incubation, the membrane was washed three times (15 minutes for each wash) with 15 mL portions of fresh PBST. The washed membrane was incubated with 10 mL of the development solution for horseradish peroxidase (TMB-Blotting Substrate Solution, Pierce-Fisher Scientific) with gentle agitation. The color development was stopped by adding water. A dark spot developed at the application site on the membrane indicating affinity of SEQ ID NO: 1 for EGF.

[5] = target: T2, Recombinant Human Epidermal Growth …; assay: SPR (Biacore 3000, CM5 chip), linker modified peptide immobilized, EGF as analyte, Test Method A; EGF as analyte
Protocol: as §1

[6] = target: T1, Recombinant Human Tumor Necrosis …; assay: SPR (Biacore 3000, CM5 chip), linker modified peptide immobilized, TNF-alpha as analyte, Test Method A; TNF-alpha as analyte
Protocol: as §1

T1 sequence (P01375 77-233 limits assumed): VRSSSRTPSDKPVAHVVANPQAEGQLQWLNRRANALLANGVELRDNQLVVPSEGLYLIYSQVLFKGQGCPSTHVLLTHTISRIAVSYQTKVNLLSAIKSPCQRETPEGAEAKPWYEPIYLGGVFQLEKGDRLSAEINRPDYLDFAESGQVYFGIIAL

B1: linker modified version of SEQ ID NO: 1 (CKYVSPGMKNVNWWSHWWHATD) (peptide)
peptide: CKYVSPGMKNVNWWSHWWHATD
modifications: not fully specified (N-terminus, C-terminus); also: immobilized on CM5 chip by amine coupling via lysine residues
**Q.** What does the source list for B1?
**A.** binding result [1]: no binding; Kd [2]: 0.706 µM

B2: SEQ ID NO: 2 peptide (KNVNWWSHWWHATD) (peptide)
peptide: Ac-KNVNWWSHWWHATD-NH2
notes: Chemically synthesized (SPPS, GenScript)
**Q.** Does B2 bind [3]?
**A.** binds

B3: Biotinylated SEQ ID NO: 1 (peptide)
peptide: YVSPGMKNVNWWSHWWHATD-NH2
modifications: not fully specified (N-terminus); also: biotinylated, site not given here
**Q.** Does B3 bind [4]?
**A.** binds

B4: linker modified version of SEQ ID NO: 2 (CKNVNWWSHWWHATD) (peptide)
peptide: CKNVNWWSHWWHATD
modifications: not fully specified (N-terminus, C-terminus); also: immobilized on CM5 chip by amine coupling or conjugated to iodoacetyl magnetic beads via linker cysteine
**Q.** How did the Kd [5] turn out when B4 was run?
**A.** 2.6 µM

**Q.** What about the Kd [6] of the same binder?
**A.** 2450 µM

B5: SEQ ID NO: 1 peptide (YVSPGMKNVNWWSHWWHATD) (peptide)
peptide: Ac-YVSPGMKNVNWWSHWWHATD-NH2
notes: as for B2
**Q.** Does B5 bind [3]?
**A.** binds
